The source of these data is patent publication US20180148485A1 (Pieris, published 2018).

Where two headings read alike, the source gives them in different places.

The target in experiment [1] is T1, recombinant human GPC3 (R&D Systems #2119-GP-050/CF) (human, UniProt P51654 25-559).
T1 construct: also called Glypican-3; biotinylated human GPC3
Put plainly: ELISA, GPC3 coated, anti-NGAL-HRP detection. An excerpt: GPC3 was coated on a microtiter plate and the tested molecules were titrated. Bound molecules were detected via an HRP-labeled anti-human NGAL-specific antibody as described in Example 12. The data was fitted with a 1:1 binding model with EC50 value and the maximum signal as free parameters, and a slope that was fixed to unity.
For orientation: In an ELISA, binding on a coated surface is turned into a signal by an enzyme label.

The target in experiment [2] is T2, recombinant human CD137-Fc fusion protein (#838-4B-100, R&D Systems) (human, UniProt Q07011 24-186).
T2 construct: also called Fc-fusion of human CD137; not shown: Fc part of the bought fusion protein, not described
The experiment in a line: SPR, CD137-Fc captured by anti-human Fc antibody on CM5 chip, 1:1 model. As to the method:
Binding affinities of the CD137-binding lipocalin mutein and the bispecific polypeptides of SEQ ID NO: 46 and SEQ ID NO: 47 to recombinant human CD137-Fc fusion protein (#838-4B-100, R&D Systems) were determined by Surface Plasmon Resonance using a Biacore T200 instrument (GE Healthcare) in analogy to Example 6. Prior to the SPR affinity assay, a CM5 sensor chip was derivatized with an anti-human Fc antibody using the Human Antibody Capture Kit (GE Healthcare # BR-1008-39) according to the manufacturer's instructions.
Four different concentrations (1000 nM, 200 nM, 40 nM and 8 nM) of the bispecific polypeptides were prepared in running buffer (10 mM HEPES, 150 mM NaCl, 0.05% v/v Surfactant P20, 3 mM EDTA, pH 7.4 (GE Healthcare)) and applied to the chip surface. Applying a flow rate of 30 μL/min, the sample contact time was 180 s and dissociation time was 600 s. All measurements were performed at 25° C. […] Prior to the protein measurements three regeneration cycles were performed for conditioning purposes. Data were evaluated with Biacore T200 Evaluation software (V 2.0). Double referencing was used and the 1:1 Binding model was used to fit the raw data.
On the technique in general: Surface plasmon resonance follows binding to a sensor surface in real time, without labels.

The target in experiment [3] is T2, recombinant human CD137-Fc fusion …. The experiment in a line: dual-binding ELISA: CD137-Fc coated, fusion titrated, biotinylated GPC3 detected with Extravidin-HRP. Here is the method:
FIG. 16: provides a representative experiment in which the ability of two bispecific fusion polypeptides of SEQ ID NO: 46 and SEQ ID NO: 47 to bind the targets, GPC3 and CD137, simultaneously was determined. Recombinant CD137-Fc fusion protein was coated on a microtiter plate, followed by a titration of the fusion protein. Subsequently, a constant concentration of biotinylated human GPC3 was added, which was detected via HRP-labeled extravidin as described in Example 16. The data was fitted with a 1:1 binding model with EC50 value and the maximum signal as free parameters, and a slope that was fixed to unity.
The result of the experiment is depicted in FIG. 16, together with the fit curves resulting from a 1:1 binding sigmoidal fit, where the EC50 value and the maximum signal were free parameters, and the slope was fixed to unity.

Experiment [4] deals with T1, recombinant human GPC3 (R&D Systems …). The experiment in a line: ELISA, GPC3 coated, anti-NGAL-HRP detection. An excerpt:
GPC3 was coated on a microtiter plate and the tested molecules were titrated. Bound molecules were detected via an HRP-labeled human NGAL-specific antibody as described in Example 14. The data was fitted with a 1:1 binding model with EC50 value and the maximum signal as free parameters, and a slope that was fixed to unity.
This is another data set of the same source.

The target of experiment [5] is T2, recombinant human CD137-Fc fusion …. The experiment in a line: ELISA, CD137-Fc coated, as described in Example 3.
Experiment [6] addresses T1, recombinant human GPC3 (R&D Systems …). The experiment in a line: SPR, biotinylated fusion captured on CAP chip, GPC3 as analyte (11-300 nM). Here is the method:
The data were double-referenced by subtraction of the corresponding signals measured for the control channel (loaded with Biotin CAPture reagent only) and by subtraction of buffer injections from the binding responses. Association rate constant kₐ and dissociation rate constant kd for the binding reaction were determined using Biacore T200 Evaluation Software V2.0 for data processing and kinetic fitting.

In experiment [7] the target is T2, recombinant human CD137-Fc fusion …. Put plainly: ELISA, CD137-Fc coated, anti-human IgG-HRP detection. Here is the method: The antibody of SEQ ID NOs: 34 and 35 served as the positive control. The target was dissolved in PBS (1 μg/mL) and coated overnight on microtiter plates at 4° C. The plate was washed after each incubation step with 100 μL PBS-T five times. The plates were blocked with 2% BSA (w/v) in PBS-T for 1 h at room temperature and subsequently washed. Different concentrations of the CD137-specific antibody or the fusion polypeptides were added to the wells and incubated for 1 h at room temperature, followed by a wash step. Bound fusion protein was detected after incubation for 1 h at room temperature with 1:5000 diluted mouse anti-human IgG Fab antibody conjugated to HRP (Jackson Laboratories) in PBS-TB. After an additional wash step, fluorogenic HRP substrate (QuantaBlu, Thermo) was added to each well and the fluorescence intensity was detected using a fluorescence microplate reader.
The result of the experiment is depicted in FIG. 3, together with the fit curves resulting from a 1:1 binding sigmoidal fit, where the EC50 value and the maximum signal were free parameters, and the slope was fixed to unity.

Experiment [8] has the same target. The experiment in a line: SPR, biotinylated CD137-Fc captured on CAP chip, 1:1 model, apparent affinity. Here is the method:
Briefly, biotinylated CD137-Fc was captured on a sensor chip CAP and four dilutions (20, 5, 1.3 and 0.3 nM) of each tested agent (fusion protein or SEQ ID NOs: 34 and 35) were prepared in running buffer and applied to the chip surface. Applying a flow rate of 30 μL/min, the sample contact time was 180 s and dissociation time was 600 s. All measurements were otherwise performed and analyzed as described in Example 5.

T1 sequence (P51654 25-559 limits assumed): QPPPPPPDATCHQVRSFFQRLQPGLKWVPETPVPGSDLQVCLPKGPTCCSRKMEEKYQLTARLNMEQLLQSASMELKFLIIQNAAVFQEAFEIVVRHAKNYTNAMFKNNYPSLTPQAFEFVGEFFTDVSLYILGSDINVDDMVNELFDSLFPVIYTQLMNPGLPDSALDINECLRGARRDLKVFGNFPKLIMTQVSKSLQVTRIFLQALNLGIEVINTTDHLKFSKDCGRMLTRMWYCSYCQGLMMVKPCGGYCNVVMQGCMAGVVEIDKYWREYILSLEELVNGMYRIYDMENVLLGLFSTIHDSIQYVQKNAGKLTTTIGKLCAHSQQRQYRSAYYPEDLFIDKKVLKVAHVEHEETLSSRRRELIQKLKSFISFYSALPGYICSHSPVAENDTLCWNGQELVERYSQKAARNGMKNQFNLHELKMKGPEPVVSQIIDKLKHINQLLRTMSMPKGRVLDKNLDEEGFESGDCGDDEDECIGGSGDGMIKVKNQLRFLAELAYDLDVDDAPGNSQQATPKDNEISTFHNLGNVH

B1: fusion polypeptide of SEQ ID NOs: 53 and 54 (bispecific antibody, human IgG2, lambda)
chain 1: EVQLVQSGAEVKKPGESLRISCKGSGYSFSTYWISWVRQMPGKGLEWMGKIYPGDSYTNYSPSFQGQVTISADKSISTAYLQWSSLKASDTAMYYCARGYGIFDYWGQGTLVTVSSASTKGPSVFPLAPCSRSTSESTAALGCLVKDYFPEPVTVSWNSGALTSGVHTFPAVLQSSGLYSLSSVVTVPSSNFGTQTYTCNVDHKPSNTKVDKTVERKCCVECPPCPAPPVAGPSVFLFPPKPKDTLMISRTPEVTCVVVDVSHEDPEVQFNWYVDGVEVHNAKTKPREEQFNSTFRVVSVLTVVHQDWLNGKEYKCKVSNKGLPAPIEKTISKTKGQPREPQVYTLPPSREEMTKNQVSLTCLVKGFYPSDIAVEWESNGQPENNYKTTPPMLDSDGSFFLYSKLTVDKSRWQQGNVFSCSVMHEALHNHYTQKSLSLSPGKGGGGSGGGGSGGGGSQDSTSDLIPAPPLSKVPLQQNFQDNQFQGKWYVVGRAGNVGLREDKDPPKMWATIYELKEDKSYDVTNVRFARKKCTYSIGTFVPGSQPGEFTLGQIKSEPGGTANLVRVVSTNYNQHAMVFFKEVYQNREIFFIILYGRTKELTSELKENFIRFSKSLGLPENHIVFPVPIDQCIDG
chain 2: SYELTQPPSVSVSPGQTASITCSGDNIGDQYAHWYQQKPGQSPVLVIYQDKNRPSGIPERFSGSNSGNTATLTISGTQAMDEADYYCATYTGFGSLAVFGGGTKLTVLGQPKAAPSVTLFPPSSEELQANKATLVCLISDFYPGAVTVAWKADSSPVKAGVETTTPSKQSNNKYAASSYLSLTPEQWKSHRSYSCQVTHEGSTVEKTVAPTECS
In the case of B1, the EC50 in experiment [1] is 0.62 nM.

B2: bispecific fusion polypeptide of SEQ ID NO: 46 (designed binder)
chain: QDSTSDLIPAPPLSKVPLQQNFQDNQFQGKWYVVGVAGNGMLREDKDPLKMRATIYELKEDKSYDVTSVAFRNKKCHYKIGTFVPGSQPGEFTLGQIKSGPGETSNLVRVVSTNYNQHAMVFFKEVRQNREWFFITLYGRTKELTSELKENFIRFSKSLGLPENHIVFPVPIDQCIDGGGGGSGGGGSQDSTSDLIPAPPLSKVPLQQNFQDNQFHGKWYVVGQAGNIRLREDKDPIKMMATIYELKEDKSYDVTMVKFDDKKCMYDIWTFVPGSQPGEFTLGKIKSFPGHTSSLVRVVSTNYNQHAMVFFKFVFQNREEFYITLYGRTKELTSELKENFIRFSKSLGLPENHIVFPVPIDQCIDG
For the molecule B2, the Kd worked out at 0.0016 nM in experiment [2] and 4.3 nM in experiment [6]. The EC50 in experiment [3] was determined as 7.3 nM; in experiment [4] it was 0.14 nM; in experiment [5], 0.2 nM.

B3: CD137-specific antibody of SEQ ID NOs: 34 and 35 (antibody, human IgG4 S228P, kappa, V domains shown)
VH: QVQLQQWGAGLLKPSETLSLTCAVYGGSFSGYYWSWIRQSPEKGLEWIGEINHGGYVTYNPSLESRVTISVDTSKNQFSLKLSSVTAADTAVYYCARDYGPGNYDWYFDLWGRGTLVTVSS
VL: EIVLTQSPATLSLSPGERATLSCRASQSVSSYLAWYQQKPGQAPRLLIYDASNRATGIPARFSGSGSGTDFTLTISSLEPEDFAVYYCQQRSNWPPALTFGGGTKVEIKR
notes: also called antibody 20H4.9
For the molecule B3, in experiment [7], the EC50 came out at 1.5 nM. Moreover, the Kd in experiment [8] turned out to be 0.092 nM.

B4: bispecific fusion polypeptide of SEQ ID NO: 47 (designed binder)
chain: QDSTSDLIPAPPLSKVPLQQNFQDNQFQGKWYVVGVAGNGMLREDKDPLKMRATIYELKEDKSYDVTSVAFRNKKCHYKIGTFVPGSQPGEFTLGQIKSGPGETSNLVRVVSTNYNQHAMVFFKEVRQNREWFFITLYGRTKELTSELKENFIRFSKSLGLPENHIVFPVPIDQCIDGGGGGSGGGGSQDSTSDLIPAPPLSKVPLQQNFQDNQFHGKWYVVGQAGNIRLREDKDPIKMMATIYELKEDKSYDVTMVKFDDKKCMYDIWTFVPGSQPGEFTLGKIKSFPGHTSSLVRVVSTNYNQHAMVFFKFVFQNREEFYITLYGRTKELTSELKENFIRFSKSLGLPENHIVFPVPIDQCIDGGGGGSGGGGSQDSTSDLIPAPPLSKVPLQQNFQDNQFHGKWYVVGQAGNIRLREDKDPIKMMATIYELKEDKSYDVTMVKFDDKKCMYDIWTFVPGSQPGEFTLGKIKSFPGHTSSLVRVVSTNYNQHAMVFFKFVFQNREEFYITLYGRTKELTSELKENFIRFSKSLGLPENHIVFPVPIDQCIDG
Take B4: the Kd in experiment [2] stood at 0.0006 nM; in experiment [6] it was 3.5 nM. Also, the figures for the EC50 in experiment [3], in experiment [4] and in experiment [5] were 7.47 nM, 0.16 nM and 0.26 nM, respectively.

B5: lipocalin mutein of SEQ ID NO: 8 (designed binder)
chain: QDSTSDLIPAPPLSKVPLQQNFQDNQFQGKWYVVGVAGNGMLREDKDPLKMRATIYELKEDKSYDVTSVAFRNKKCHYKIGTFVPGSQPGEFTLGQIKSGPGETSNLVRVVSTNYNQHAMVFFKEVRQNREWFFITLYGRTKELTSELKENFIRFSKSLGLPENHIVFPVPIDQCIDG
As to B5, the EC50 in experiment [4] was found to be 0.24 nM.

A word on the EC50: it is the concentration needed to bring the measured effect to its halfway point.
